Experimental data taken from the supplement of paper PMC9170038.

Tested on: MS2 coat protein
Assay: apparent KD of MS2 coat protein; designed switch direction (-1 OFF switch, 1 ON switch): -1; higher = weaker reporter binding
Method in brief: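 Designed RNA switches were transcribed on Illumina chips by stalled E. coli RNA polymerase and titrated with SNAP-549-labelled MS2 coat protein from 0.7 or 1.5 nM, doubling to 3 µM. Step length ran from 0.8–1.5 h at the lowest concentration to 10–20 min at the highest. The apparent KD is the median over clusters for each design, from curve-fitted normalised cluster fluorescence.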

[1] = Eterna round: R95, input ligand: microRNA oligo, concentration not stated
[2] = Eterna round: R95, input ligand: FMN 200 uM
[3] = Eterna round: R95, input ligand: none
[4] = input ligand: microRNA oligo, concentration not stated

Row | Sequence | apparent KD of MS2 coat protein (input ligand: FMN 200 uM) [µM] | apparent KD of MS2 coat protein (input ligand: none) [µM] | apparent KD of MS2 coat protein [1] [µM] | apparent KD of MS2 coat protein [2] [µM] | apparent KD of MS2 coat protein [3] [µM] | apparent KD of MS2 coat protein [4] [µM]
1 | UCAACCAGAGGAUAUGCGCAUAGAUCAGACUUUGUUUCUUAACAUGAGGAUCACCCAUGUAGAAGGCUGUAACC [Ex2 #77] (Eterna round: R97, puzzle: Exclusion 2) | 0.0203 | 0.0198 | – | – | – | –
2 | AUAUUGUGAGGAUAUGAACUUACUAUCGAAAGAUACUAAGUUCAGAAGGCACAUGAGGAUCACCCAUGUUUCUC [Long static hairpin v19] (Eterna round: R97, puzzle: Exclusion 4) | 0.664 | 0.0761 | – | – | – | –
3 | CUUUUGUGAGGAUAUCAGUAGUAAUAAAAUAAAAUAACUACUGAGAAGGCACAUGAGGAUCACCCAUGUUCCUC [Mat - Exclusion 4 - Mod of Salish - D72] (puzzle: Exclusion 4) | – | – | 0.03 | – | – | –
4 | GUAAACGCAGAGGAUAUUUCAGAUCCUAGCUGCAAAGAAGGCUGCACAUGAGGAUCACCCAUGUGGUCCUGAAG [Mat - Exclusion 6 - Eli Mod - D2] (Eterna round: R97, puzzle: Exclusion 6) | 0.191 | 0.0682 | – | – | – | –
5 | ACCUCACAUGAGGAUCACCCAUGUCAGGAUAUCUUUUAAAACACCAAUCGUGUCGCUGAGAGAAGGGACAUUAA [EX1 #23] (Eterna round: R97, puzzle: Exclusion 1) | 0.0205 | 0.016 | – | – | – | –
6 | CGGUGCUGAGGAUAUACAUGAGGAUCACCCAUGUGUUCUUGCUAGCGUACUGGCAGAUGUAGAAGGCGGUACUG [JL-ex3-3.45 Brourd mod] (puzzle: Exclusion 3) | – | – | 0.0197 | 0.0997 | 0.0227 | –
7 | AAAACACAUGAGGAUCACCCAUGUGAGGAUAUGUUCAUUGUGAGCAAACUUAUGAUGAACAGAAGGCACAUAAA [JR_Exclusion1_Sub017] (puzzle: Exclusion 1) | – | – | 0.0389 | – | – | –
8 | ACGUGAUAUCUGUCGGUGGACAUGAGGAUCACCCAUGUAAGCUUUCUGCUCGUCUUAUAACCCGGUGACAGACCUUC [Diteerquus] (puzzle: Sensor v3, turn-off variant 1) | – | – | 0.31 | 0.0453 | 0.0569 | –
9 | GAUCACUGAGGAUAUACACAGAUACAAAGUAUCUGACGGUGACAUGAGGAUCACCCAUGUAGAAGGCAGAGGUC [Omei Ex2 B2] (Eterna round: R97, puzzle: Exclusion 2) | 0.36 | 0.696 | – | – | – | –
10 | AUAUAGUCAGGAUAUCGAAAUAUAUAUUAAUAUAUAUAAUACGAGAAGGGACAUGAGGAUCACCCAUGUAGUAA [JR_Exclusion4)Sub001] (puzzle: Exclusion 4) | – | – | 0.0237 | – | – | –
11 | ACAUGUUGCGCAGGAUAUGGGACACAUGAGGAUCACCCAUGUGGUUACAUGUCUUACCAAGCGUCCCAGAAGGGUGUGAACAUG [Ex NG2 #32] (Eterna round: R96, puzzle: Exclusion NG 2) | 0.026 | 0.0203 | – | – | – | 0.0165
12 | CGUCCUGUAGUGAGGAUAUUGUCUCGGAUACGAAACAAGAAGGCACAUGAGGAUCACCCAUGUAAUCAGGACGA [Malc #30 mod 12] (puzzle: Brourd's mod of Exclusion 4) | – | – | 0.0161 | 0.0141 | 0.0133 | –
13 | GCCGAUUAAGUGAGGAUAUACCUAUGGAAACAUAGGUAGAAGGCACAUGAGGAUCACCCAUGUUCCUAUACGGC [Fiskers BMX 4 - 5] (puzzle: Brourd's mod of Exclusion 4) | – | – | 0.0123 | 0.0364 | 0.011 | –
14 | CGAUGCAAAGUAAGGAUAUGCUUCCGGAAACGGAGGCAGAAGGUACAUGAGGAUCACCCAUGUUAAAAGCAUCG [Explosion 3 - Jieux - Brourd's mod of Exclusion 4] (Eterna round: R97, puzzle: Brourd's mod of Exclusion 4) | 0.0163 | 0.0142 | – | – | – | –
15 | AGCUGUGGCCGAGGAUAUCACGAACCAUGGAAAACCAUGGAAAUUCUACAUGAGGAUCACCCAUGUGAGAAGGCGGUCUCAGCA [Eli eng2 - 023] (Eterna round: R96, puzzle: Exclusion NG 2) | – | – | – | – | – | 0.0125
16 | AGCCCUGCAGGAUAUGCCCGGGAUAACAUGAGGAUCACCCAUGUGACCGAUUGUUAUCCUGCAGAAGGGCUAGGGA [JL-EX5-4.11 ViennaUCT mod] (Eterna round: R97, puzzle: Exclusion 5) | 0.126 | 0.049 | – | – | – | –
17 | CAUGAUUGGGAAGGAUAUUGACCUAGUUAGCGACGAGAAGGUCCCUGUCACAUGAGGAUCACCCAUGUGAAUCUGGUGAAAGAG [Ex NG1 #100] (Eterna round: R96, puzzle: Exclusion NG 1) | 0.0298 | 0.0242 | – | – | – | 0.0204
18 | AAAAGCUCAGUCAGGAUAUGCAUUUGCACCGGCGAGCAGAAGGGACAUGAGGAUCACCCAUGUACGCGGCAGGG [Laaraor] (puzzle: Brourd's mod of Exclusion 4) | – | – | 0.0371 | 0.0808 | 0.0599 | –

Row | Sequence | apparent KD of MS2 coat protein (input ligand: FMN 200 uM) [µM] | apparent KD of MS2 coat protein (input ligand: none) [µM] | apparent KD of MS2 coat protein [1] [µM] | apparent KD of MS2 coat protein [2] [µM] | apparent KD of MS2 coat protein [3] [µM] | apparent KD of MS2 coat protein [4] [µM]
19 | UAUUAUCAAGCAAGAUCCCACAUGAGGAUCACCCAUGUGCUCGUCUUAUUUCCGGAAUUAUUGGGCUCUCGUCUAAU [JR_STOV1_Sub093] (Eterna round: R97, puzzle: Sensor, turn-off variant 1) | 0.0901 | 0.0782 | – | – | – | –
20 | ACAUGAGGAUCACCCAUGUCCGGCUGGUCCGUUUCGGCUGUCGAGGAUAUAGUUCGGUGUUCGCGCUAGAAGGCGGGAGCUGGC [Aenatbe mod 60] (Eterna round: R96, puzzle: Exclusion NG 3) | 0.206 | 0.114 | – | – | – | 0.0687
21 | CACCGGUGAGACAACAUGAGGAUCACCCAUGUGAACAGCUCACAGGAUAUCCAGGCACGAAAGAAGGAGAAGGGUGGCUGACUC [Veuson] (Eterna round: R96, puzzle: Exclusion NG 3) | 0.0172 | 0.0174 | – | – | – | 0.0136
22 | CAGCUGAAUGUGAGGAUAUGUCUAGCUGCGGCUAGACAGAAGGCACAUGAGGAUCACCCAUGUCUCAACAGCUG [BmEx4/2-D3] (Eterna round: R97, puzzle: Brourd's mod of Exclusion 4) | 0.414 | 0.0355 | – | – | – | –
23 | GCCUUAUCCGUCAGGAUAUACAGCCGCUCCCUGUUGUAGAAGGGACAUGAGGAUCACCCAUGUACGUACCACCG [alecazam8] (Eterna round: R97, puzzle: Brourd's mod of Exclusion 4) | 0.0281 | 0.0292 | – | – | – | –
24 | GCUCAGAUGACAGGAUAUCACGCCUGGCAGAUGGGCGACAUGAGGAUCACCCAUGUCCAGCACGAUGAGAAGGGUUAUCGGGCG [Ririorti] (Eterna round: R96, puzzle: Exclusion NG 2) | 0.195 | 0.0964 | – | – | – | 0.0942
25 | GAGUGACAUGAGGAUCACCCAUGUGAGGAUAUCGGACGGACCAAGUUAACAUCCGCCGCGAGAAGGCACAUCGG [Exclusion 1 V23] (puzzle: Exclusion 1) | – | – | 0.104 | – | – | –
26 | AUCAUGUGAGGAUAUGUGAUCAACCUUCUAUAUAGAUGAUGACAGAAGGCACAUGAGGAUCACCCAUGUAGAUC [Ex4 - 3 - 20] (puzzle: Exclusion 4) | – | – | 0.0451 | – | – | –
27 | CUUAGACAUGAGGAUCACCCAUGUGAGGAUAUGAUGCGAAUAAGGAAGGAAGAAAGCAUCAGAAGGCACAUAUG [Mat - Mod of Hyphema D25] (puzzle: Exclusion 1) | – | – | 0.139 | 0.161 | 0.104 | –
28 | UAGAUGGGAGGAUAUGCGUAGAUGCAGGUUCGUGUGGUGCUACAUGAGGAUCACCCAUGUAGAAGGCCCGUCUU [Mod 7 R3 JL-ex2-2.29 - Jieux - Exclusion 2] (Eterna round: R97, puzzle: Exclusion 2) | 0.0207 | 0.0176 | – | – | – | –
29 | GGUUUGGGAGGAUAUGGUUUUAAUAACAUGAGGAUCACCCAUGUAAAUAGAUCCUCGAGGCCAGAAGGCUCGGGCC [-24.9, -23.72 kcal, A 28%] (Eterna round: R97, puzzle: Exclusion 5) | 0.405 | 0.0857 | – | – | – | –
30 | GCUGCGCGAGGAUAUGCGGUUCGCGCUGUGGCCCGUGGCGGACAUGAGGAUCACCCAUGUAGAAGGCGUGCGGG [Apr-15 SS2-58] (puzzle: Exclusion 2) | – | – | 0.0103 | – | – | –
31 | AGUACUGACACGUUGGUGUUAGUACAAUAAGCUUGUGACACAUGAGGAUCACCCAUGUCCUCAUAAGCUCGUCUUAU [salish99_TOv2_r2_094] (puzzle: Sensor v3, turn-off variant 2) | – | – | 1.08 | 0.022 | 0.0207 | –
32 | UAUGGUUAAGUCAGGAUAUACAUACAGAUAUCUGAGUAGAAGGGACAUGAGGAUCACCCAUGUAUGGUAGUGUU [Ex4 #54] (Eterna round: R97, puzzle: Brourd's mod of Exclusion 4) | 0.169 | 0.0763 | – | – | – | –
33 | GCAGGAUAAGUGAGGAUAUACCUAUGGAUACAUAGGUAGAAGGUACAUGAGGAUCACCCAUGUUCCUUACCUGC [Fiskers BMX 4 - 65] (puzzle: Brourd's mod of Exclusion 4) | – | – | 0.0117 | – | – | –
34 | GAGUGACAUGAGGAUCACCCAUGUGAGGAUAUCGGACGGACCUAGUUAACUUCCGCCGCGAGAAGGCACAUCGG [Exclusion 1 V23] (puzzle: Exclusion 1) | – | – | 0.0702 | – | – | –
35 | CGGAGCGUAGGUAGGUUCAACAUGAGGAUCACCCAUGUCUCACAAGCUUUUUGCUCAUCUUAUUGUACCUUGGUGCU [Sensor v3, turn-off variant 1 (MOD of JL )] (puzzle: Sensor v3, turn-off variant 1) | – | – | 0.0373 | 0.117 | 0.144 | –
